Experimental data as given in article PMC11907795.

Molecular target: PthA4-His (Xanthomonas citri subsp. citri (strain …, UniProt A0AAI8ETU3 1-1163))
Assay: EMSA; poly dI-dC; unlabeled competitor 1x-800x
Conditions: protein: recombinant; tags: His (N-terminal, pET28a); label: Cy5; blunt

B1: ProCsGRAS9 (dsDNA)
DNA 1: TATATACATACACACACACACACACACACATAT
DNA 2: ATATGTGTGTGTGTGTGTGTGTGTATGTATATA
B1: binds.
